# Non-standard residues stand in square brackets, D forms with d. No end group written: not given here. *: point of attachment. Biotin = O=C1N[C@H]2[C@H](CS[C@H]2CCCCC(=O)*)N1; sY = N[C@@H](Cc1ccc(OS(=O)(=O)O)cc1)C(=O)O
# T1: SulfoTyr C4 peptide (not fully specified; Y4, Y7 and Y9 sulfated (SO3); C-terminal biotin)
# T1 construct: also called C4 alpha chain peptide; human sulfotyrosinylated C4 peptide
# T1 peptide: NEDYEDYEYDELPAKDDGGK
# T2: Sulfotyr fibrinogen γ peptide (not fully specified; Y8 and Y12 sulfated (SO3); C-terminal biotin)
# T2 construct: also called Fibrinogen gamma peptide; human sulfotyrosinylated fibrinogen peptide
# T2 peptide: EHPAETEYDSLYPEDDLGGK
# T3: Recombinant human PSGL-1(ECD)-hFc1 (R&D Systems, Cat. 3345-PS) (human, UniProt Q14242 42-305)
# T3 construct: Bought; Gln42-Val295 counted on AAC50061; also called PSGL-1-Fc; PSGL-1-hFc1 chimera; not shown: human IgG1 Fc, Pro100-Lys330
# T3 sequence: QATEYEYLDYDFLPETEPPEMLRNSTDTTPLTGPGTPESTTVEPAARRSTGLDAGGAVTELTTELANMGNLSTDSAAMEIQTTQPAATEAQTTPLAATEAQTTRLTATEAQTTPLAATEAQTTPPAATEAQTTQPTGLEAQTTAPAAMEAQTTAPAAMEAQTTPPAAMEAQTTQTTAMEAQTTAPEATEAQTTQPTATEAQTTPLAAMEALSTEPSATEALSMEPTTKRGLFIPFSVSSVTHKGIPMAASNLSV
# T4: Human fibrinogen protein (ThermoFisher, RP-43142) (human, UniProt P02671 20-629; P02675 31-491; P02679 27-453, limits assumed, natural sulfotyrosines)
# T4 construct: mature; Native dimer with 3 pairs of non-identical chains; also called gamma-fibrinogen; γ fibrinogen protein
# T4 sequence (looked up) 1: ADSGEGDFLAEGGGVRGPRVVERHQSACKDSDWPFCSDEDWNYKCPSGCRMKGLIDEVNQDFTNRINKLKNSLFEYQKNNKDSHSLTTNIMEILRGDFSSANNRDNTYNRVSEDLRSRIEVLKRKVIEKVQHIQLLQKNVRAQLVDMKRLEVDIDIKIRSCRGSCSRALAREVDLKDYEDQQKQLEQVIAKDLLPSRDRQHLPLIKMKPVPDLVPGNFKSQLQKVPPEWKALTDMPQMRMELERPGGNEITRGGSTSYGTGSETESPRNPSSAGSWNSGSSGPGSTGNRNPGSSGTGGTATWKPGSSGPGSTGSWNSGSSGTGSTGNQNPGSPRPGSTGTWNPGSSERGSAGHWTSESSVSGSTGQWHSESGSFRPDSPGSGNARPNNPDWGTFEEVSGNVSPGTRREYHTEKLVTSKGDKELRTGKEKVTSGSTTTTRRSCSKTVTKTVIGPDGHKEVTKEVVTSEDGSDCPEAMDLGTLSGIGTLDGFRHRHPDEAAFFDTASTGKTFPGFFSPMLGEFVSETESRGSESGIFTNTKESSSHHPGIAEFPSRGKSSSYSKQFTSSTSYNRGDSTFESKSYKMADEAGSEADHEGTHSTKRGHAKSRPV
# T4 sequence (looked up) 2: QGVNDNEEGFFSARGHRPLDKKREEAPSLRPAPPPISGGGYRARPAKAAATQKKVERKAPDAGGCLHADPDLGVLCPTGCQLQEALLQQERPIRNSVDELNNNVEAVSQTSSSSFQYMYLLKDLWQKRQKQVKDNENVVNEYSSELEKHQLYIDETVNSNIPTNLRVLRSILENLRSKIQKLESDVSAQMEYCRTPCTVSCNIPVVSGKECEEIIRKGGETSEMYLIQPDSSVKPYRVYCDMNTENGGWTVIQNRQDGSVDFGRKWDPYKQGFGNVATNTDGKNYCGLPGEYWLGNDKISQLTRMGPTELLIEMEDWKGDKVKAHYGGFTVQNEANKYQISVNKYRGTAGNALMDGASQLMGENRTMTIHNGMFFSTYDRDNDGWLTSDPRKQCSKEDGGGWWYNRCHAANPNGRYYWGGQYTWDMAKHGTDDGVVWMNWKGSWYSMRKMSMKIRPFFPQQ
# T4 sequence (looked up) 3: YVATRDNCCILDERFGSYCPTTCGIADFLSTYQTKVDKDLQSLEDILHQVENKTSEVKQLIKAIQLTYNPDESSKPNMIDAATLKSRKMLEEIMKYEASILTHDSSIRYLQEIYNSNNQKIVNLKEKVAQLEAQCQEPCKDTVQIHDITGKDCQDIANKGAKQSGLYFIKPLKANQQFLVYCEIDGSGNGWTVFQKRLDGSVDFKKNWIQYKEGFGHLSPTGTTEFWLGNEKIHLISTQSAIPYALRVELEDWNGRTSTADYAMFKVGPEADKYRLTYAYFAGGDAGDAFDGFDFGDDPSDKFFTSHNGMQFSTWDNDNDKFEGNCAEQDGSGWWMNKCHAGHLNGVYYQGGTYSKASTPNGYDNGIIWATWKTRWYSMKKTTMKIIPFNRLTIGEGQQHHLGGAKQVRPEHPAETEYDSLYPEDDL
# T5: SulfoCCK biotin peptide (human)
# T5 construct: also called sulfotyrosine CCK peptide
# T5 peptide: SHRISDRD[sY]MGWMDFGGK(Biotin)
# T6: Sulfotyrosine CCR2b biotin peptide (human)
# T6 construct: also called CCR2b peptide
# T6 peptide: TTFFD[sY]D[sY]GAPSHGGK(Biotin)
# T7: Sulfotyrosine D6 biotin peptide (human)
# T7 construct: also called D6 peptide
# T7 peptide: ENSSFY[sY][sY]D[sY]LDEVAFGGK(Biotin)
# B1: 05C02 (antibody, V domains shown)
# VH: EVKLLESGGGVVQPGRSLRLSCAASGFTFKNFAMHWVRQAPGKGLEWVAVISYDGSSEDYADSVKGRFTLSRDNAKNSLYLQMNNLRAEDTAVYYCARGRRPDYWGQGTLVTVSS
# VL: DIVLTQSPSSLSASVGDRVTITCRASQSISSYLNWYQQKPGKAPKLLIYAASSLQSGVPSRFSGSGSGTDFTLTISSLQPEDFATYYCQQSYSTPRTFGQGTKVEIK
# B2: 09C10 (antibody, V domains shown)
# VH: EVKLLESGGGLIQPGGSLRLSCAASGFTVSNNYVTWVRQAPGKGLELVSSIYSGGGTYYADSVKGRFTISRDNSKNTVYLQMNSLRADDTAVYYCARNVPVTNFGYWGQGTLVTVSS
# VL: DIVMTQSPLSLPVTLGQPASISCRSSQSLVYRDGNTYLNWFQQRPGQSPRRLIYKVSNRDSGVPDRFSGSGSGTDFTLKISRVEAEDVGVYYCMQLTHWPPGFAQGTKLEIK
# B3: 05A11 (antibody, IgG4, V domains shown)
# VH: EVKLLESGGGVVQPGRSLRLSCAASGFSFSAYGMHWVRQAPGKGLEWVSSISGSGDGTYYADSVKGRFTISRDNSKNTLYLQMNSLRAEDAAVYYCAKSVKGRGYFFDYWGQGTLVTVSS
# VL: DIVLTQSPSSLSASVGDRVTITCRASQSISSYLNWYQQKPGKAPKLLIYAASSLQSGVPSRFSGSGSGTDFTLSISNLQPEDFATYYCQQAYKFPRSFGGGTKVEFK
# B4: 06C04 (antibody, IgG4, V domains shown)
# VH: EVQLVESGGGLVQPGGSLRLSCAASGFTFSDHYMDWVRQAPGKGLEWVGRSRNKVKSYTTAYAASVEGRITISRDDSKNSLYLEMNSLKTEDTAVYYCVRVRWGGAFDIWGQGTMVTVSS
# VL: QPVLTQPPSASGSPGQSVTISCTGTSSDVGGYNYVSWYQQHPGKAPKLMIYEVSKRPSGVPDRFSGSKSGNTASLTVSGLQAEDEADYYCSSYAGSNNLRVFGGGTKLTVL
# B5: 06A07 (antibody, IgG4, V domains shown)
# VH: QVQLVQSGPELKNPGASVKVSCKASGYSFTNFYINWVRQAPGRGLEWVGWISPNNGNTHYARNLQGRVTMTTDTSTNTAYLELKNLRSDDTAIYFCGRSVSMGYWGQGTLVTVSS
# VL: LPVLTQPPSVSKGLRQTATLTCTGNSKNVGNQGAAWLQQHQGQPPKLLSYRNNNRPSGISERFSASRSGNTASLTITGLQPEDEADYYCSAWDSSLSAQVFGGGTKLTVL
# B6: 09A02 (antibody, IgG4, V domains shown)
# VH: EVQLVQSGGGLVKPGGSLRLSCAASGFTFRTAWMSWVRQAPGKGLEWVGRMKSKNDGGTTDYAAPVKGRFTISRDDSRDTVYLQMNSLKTEDTGVYYCATYAAGATVPWGQGTLVTVSS
# VL: DIVMTQTPLSAPVTLGQPASISCRSSRSLLQRNGYNYVDWYQQKAGNPPRLLIYLGSRRASGVPDRFSGSGSDKDFTLKISRVEADDVGFYFCKQSLQAPPTFGGGTKIEIT
# Target: T1, SulfoTyr C4 peptide
# Assay: ELISA, 50 nM mAb
# Description: (§1) Recombinant PSGL-1-hFc1 chimera protein consisting of PSGL-1's extracellular domain (ECD) served as a positive control. […] Primary antibody was added (25 ul per well) in duplicate at 50 nM in assay buffer (blocking buffer containing 0.05% Tween®20) into test and control (just blocked) wells and the plate incubated for 45 min at 37° C.
row,binding normalized to PSGL-1,Binder
1,0.47,B1
2,1.15,B2
3,0.44,B3
4,0.94,B4
5,0.63,B5
6,1,B6

# Target: T2, Sulfotyr fibrinogen γ peptide
# Assay: ELISA, 50 nM mAb
# Description: as §1
row,binding normalized to PSGL-1,Binder
1,0.42,B1
2,1.3,B2
3,0.87,B3
4,1.15,B4
5,0.69,B5
6,1.06,B6

# Target: T3, Recombinant human PSGL-1(ECD)-hFc1 (R&D …)
# Assay: ELISA, 50 nM mAb
# Description: as §1
row,A450nm [A450nm],Binder
1,2.27,B1
2,2.16,B2
3,1.99,B3
4,2.22,B4
5,2.51,B5
6,2.51,B6

# Target: T8, Human complement C4 protein (Millipore Sigma, Cat. 204886) (human, UniProt P0C0L4 20-675; P0C0L4 680-1446; P0C0L4 1454-1744, limits assumed, natural sulfotyrosines)
# T8 construct: mature
# T8 sequence (P0C0L4 20-675 limits assumed, form in doubt, chain 1 of 3): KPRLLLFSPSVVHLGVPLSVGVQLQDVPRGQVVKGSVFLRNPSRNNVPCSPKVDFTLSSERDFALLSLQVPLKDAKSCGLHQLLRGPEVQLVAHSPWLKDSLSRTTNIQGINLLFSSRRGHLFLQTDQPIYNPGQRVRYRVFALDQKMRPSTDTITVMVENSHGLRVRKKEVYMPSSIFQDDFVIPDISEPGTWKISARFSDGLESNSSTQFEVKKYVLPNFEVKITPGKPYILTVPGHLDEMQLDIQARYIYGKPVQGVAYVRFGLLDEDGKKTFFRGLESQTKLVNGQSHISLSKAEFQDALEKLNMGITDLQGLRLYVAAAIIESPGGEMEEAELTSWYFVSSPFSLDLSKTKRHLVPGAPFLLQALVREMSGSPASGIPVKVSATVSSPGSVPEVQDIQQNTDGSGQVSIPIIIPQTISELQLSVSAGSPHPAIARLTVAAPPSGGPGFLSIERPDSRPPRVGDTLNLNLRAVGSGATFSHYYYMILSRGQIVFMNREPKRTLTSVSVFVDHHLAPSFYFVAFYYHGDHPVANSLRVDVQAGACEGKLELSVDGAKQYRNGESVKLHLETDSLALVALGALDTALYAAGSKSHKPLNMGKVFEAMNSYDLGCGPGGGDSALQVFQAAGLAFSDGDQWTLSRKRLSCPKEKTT
# T8 sequence (P0C0L4 680-1446 limits assumed, form in doubt, chain 2 of 3): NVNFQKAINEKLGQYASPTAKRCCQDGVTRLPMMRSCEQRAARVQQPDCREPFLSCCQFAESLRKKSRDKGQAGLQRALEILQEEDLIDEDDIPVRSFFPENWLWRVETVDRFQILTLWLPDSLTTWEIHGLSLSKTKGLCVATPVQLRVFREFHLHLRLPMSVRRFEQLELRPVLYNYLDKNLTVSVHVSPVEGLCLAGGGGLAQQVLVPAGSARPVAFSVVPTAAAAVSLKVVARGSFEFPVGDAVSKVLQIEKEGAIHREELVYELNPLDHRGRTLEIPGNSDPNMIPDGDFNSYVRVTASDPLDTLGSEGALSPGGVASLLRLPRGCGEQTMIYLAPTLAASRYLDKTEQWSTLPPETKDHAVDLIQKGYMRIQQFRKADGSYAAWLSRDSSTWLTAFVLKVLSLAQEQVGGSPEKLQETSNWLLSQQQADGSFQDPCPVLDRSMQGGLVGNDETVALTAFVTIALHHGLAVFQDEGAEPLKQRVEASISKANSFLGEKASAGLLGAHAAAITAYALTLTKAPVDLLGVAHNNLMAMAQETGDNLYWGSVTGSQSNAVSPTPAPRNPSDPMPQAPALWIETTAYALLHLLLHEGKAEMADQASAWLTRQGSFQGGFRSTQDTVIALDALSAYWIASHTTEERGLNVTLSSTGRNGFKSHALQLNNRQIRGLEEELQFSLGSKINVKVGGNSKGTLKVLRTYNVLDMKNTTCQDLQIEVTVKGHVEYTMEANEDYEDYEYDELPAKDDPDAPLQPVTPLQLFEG
# T8 sequence (P0C0L4 1454-1744 limits assumed, form in doubt, chain 3 of 3): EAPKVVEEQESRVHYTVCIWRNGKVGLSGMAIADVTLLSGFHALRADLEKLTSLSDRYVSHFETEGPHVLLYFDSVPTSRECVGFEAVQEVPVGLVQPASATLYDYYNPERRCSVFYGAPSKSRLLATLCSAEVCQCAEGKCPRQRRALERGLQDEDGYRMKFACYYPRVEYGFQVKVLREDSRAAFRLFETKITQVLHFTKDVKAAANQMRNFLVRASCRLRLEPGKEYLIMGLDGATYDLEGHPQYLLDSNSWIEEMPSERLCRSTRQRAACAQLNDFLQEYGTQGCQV
# Assay: ELISA, 50 nM mAb
# Description: as §1
row,binding normalized to PSGL-1,Binder
1,0.48,B1
2,0.88,B2
3,0.44,B3
4,1.1,B4
5,0.57,B5
6,0.56,B6

# Target: T4, Human fibrinogen protein (ThermoFisher, …)
# Assay: ELISA, 50 nM mAb
# Description: as §1
row,binding normalized to PSGL-1,Binder
1,0.06,B1
2,0.61,B2
3,0.21,B3
4,0.51,B4
5,0.12,B5
6,0.29,B6

# Target: T5, SulfoCCK biotin peptide
# Assay: ELISA, 50 nM mAb
# Description: as §1
row,binding normalized to PSGL-1,Binder
1,0.17,B1
2,0.75,B2
3,0.41,B3
4,0.06,B4
5,0.65,B5
6,1.1,B6

# Target: T6, Sulfotyrosine CCR2b biotin peptide
# Assay: ELISA, 50 nM mAb
# Description: as §1
row,binding normalized to PSGL-1,Binder
1,0.06,B1
2,1.23,B2
3,0.09,B3
4,0.23,B4
5,0.43,B5
6,0.93,B6

# Target: T7, Sulfotyrosine D6 biotin peptide
# Assay: ELISA, 50 nM mAb
# Description: as §1
row,binding normalized to PSGL-1,Binder
1,0.52,B1
2,1.2,B2
3,0.45,B3
4,0.26,B4
5,0.68,B5
6,1.1,B6
